The results in this text go back to the PETadex activity labels (doi:10.1042/bj20051645).

Usually Km stands for the concentration of substrate that gives half-maximal velocity. The kcat is the maximal rate divided by the concentration of active sites. By kcat/Km is commonly meant the turnover number divided by the Michaelis constant.

Substrate in the data set: p-NP-C4
The settings on record: pH 7; 37 °C.

B1: unnamed (protein)
chain: MMNFNNVFRWHLPFLFLVLLTFRAAAADTLLILGDSLSAGYRMSASAAWPALLNDKWQSKTSVVNASISGDTSQQGLARLPALLKQHQPRWVLVELGGNDGLRGFQPQQTEQTLRQILQDVKAANAEPLLMQIRLPANYGRRYNEAFSAIYPKLAKEFDVPLLPFFMEEVYLKPQWMQDAGIHPNRDAQPFIADWMAKQLQPLVNHDS
Turning to B1, the Michaelis-Menten constant (Km) was found to be 1880 µM, the kcat was 5.98 s⁻¹ and the specificity constant (kcat/Km) was 3180 M⁻¹ s⁻¹.

B2: unnamed (protein)
chain: MMNFNNVFRWHLPFLFLVLLTFRAAAADTLLILGDSLSAGYRMSASAAWPALLNDKWQSKTSVVNASISADTSQQGLARLPALLKQHQPRWVLVELGGNDGLRGFQPQQTEQTLRQILQDVKAANAEPLLMQIRLPANYGRRYNEAFSAIYPKLAKEFDVPLLPFFMEEVYLKPQWMQDDGIHPNRDAQPFIADWMAKQLQPLVNHDS
B2: the Km stood at 1100 µM, the catalytic constant (kcat) stood at 3.16 s⁻¹ and the kcat/Km is 2870 M⁻¹ s⁻¹.

B3: unnamed (protein)
chain: MMNFNNVFRWHLPFLFLVLLTFRAAAADTLLILGDALSAGYRMSASAAWPALLNDKWQSKTSVVNASISGDTSQQGLARLPALLKQHQPRWVLVELGGNDGLRGFQPQQTEQTLRQILQDVKAANAEPLLMQIRLPANYGRRYNEAFSAIYPKLAKEFDVPLLPFFMEEVYLKPQWMQDDGIHPNRDAQPFIADWMAKQLQPLVNHDS
Take B3: the Km amounted to 1550 µM, the turnover number (kcat) was determined as 0.16 s⁻¹ and the specificity constant (kcat/Km) worked out at 103 M⁻¹ s⁻¹.

B4: unnamed (protein)
chain: MMNFNNVFRWHLPFLFLVLLTFRAAAADTLLILGDSLSAGYRMSASAAWPALLNDKWQSKTSVVNASISGDTSQQGLARLPALLKQHQPRWVLVELGGADGLRGFQPQQTEQTLRQILQDVKAANAEPLLMQIRLPANYGRRYNEAFSAIYPKLAKEFDVPLLPFFMEEVYLKPQWMQDDGIHPNRDAQPFIADWMAKQLQPLVNHDS
On to B4, for which the Michaelis constant (Km) was 1660 µM, the kcat came to 12 s⁻¹ and the specificity constant (kcat/Km) worked out at 7220 M⁻¹ s⁻¹.

B5: unnamed (protein)
chain: MMNFNNVFRWHLPFLFLVLLTFRAAAADTLLILGDSLSAGYRMSASAAWPALLNDKWQSKTSVVNASISGDTSQQGLARLPALLKQHQPRWVLVELGGNDGLRGFQPQQTEQTLRQILQDVKAANAEPLLMQIRLPANYGRRYNEAFSAIYPKLAKEFDVPLLPFFMEEVYLKPQWMQDDGIAPNRDAQPFIADWMAKQLQPLVNHDS
With B5, the Km is 610 µM, the catalytic constant (kcat) came to 0.0093 s⁻¹ and the kcat/Km was 15.2 M⁻¹ s⁻¹.

B6: unnamed (protein)
chain: MMNFNNVFRWHLPFLFLVLLTFRAAAADTLLILGDSLSAGYRMSASAAWPALLNDKWQSKTSVVNASISGDTSQQGLARLPALLKQHQPRWVLVELGGNDGLRGFQPQQTEQTLRQILQDVKAANAEPLLMQIRLPANYGRRYNEAFSAIYPKLAKEFDVPLLPFFMEEVYLKPQWMQDDGIHPNRDAQPFIADWMAKQLQPLVNHDS
With B6, the Km came to 870 µM, the catalytic constant (kcat) was found to be 15.3 s⁻¹ and the specificity constant (kcat/Km) amounted to 17600 M⁻¹ s⁻¹.
